Measurements taken from publication PMC10514306, “The CBL1/9-CIPK1 calcium sensor negatively regulates drought stress by phosphorylating the PYLs ABA receptor” (Nature Communications, 2023).

T1: CIPK1-His (Arabidopsis, UniProt Q8RWC9 1-444)
T1 construct: source: E. coli BL21 (Rosetta), purified; not shown: 6xHis, C-terminal, kept
T1 sequence (looked up): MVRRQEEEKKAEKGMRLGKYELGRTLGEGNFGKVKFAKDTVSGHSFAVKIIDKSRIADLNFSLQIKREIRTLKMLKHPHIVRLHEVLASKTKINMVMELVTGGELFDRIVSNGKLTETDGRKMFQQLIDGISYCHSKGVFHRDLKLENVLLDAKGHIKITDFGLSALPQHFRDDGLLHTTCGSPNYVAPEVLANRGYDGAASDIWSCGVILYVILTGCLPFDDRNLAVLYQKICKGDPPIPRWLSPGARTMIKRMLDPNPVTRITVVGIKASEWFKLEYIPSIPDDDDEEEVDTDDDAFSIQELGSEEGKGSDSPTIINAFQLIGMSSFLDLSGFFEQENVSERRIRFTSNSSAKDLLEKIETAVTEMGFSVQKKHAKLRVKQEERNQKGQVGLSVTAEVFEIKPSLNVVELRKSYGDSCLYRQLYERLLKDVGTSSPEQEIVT


Target: T1, CIPK1-His
Experiment: pull-down; 5 ug GST-PYR1/PYLs on GST resin at 4 C for 2 h, then 2 ug CIPK1-His for 2 h in pull-down buffer; 6 washes; blots with anti-His and anti-GST
Details: both partners purified

| Binder | binding result |
| --- | --- |
| GST-PYL1 (receptor, Arabidopsis, UniProt Q8VZS8 1-221, looked up, PYL1, ABA receptor, Arabidopsis; source: recombinant protein, purified; not shown: GST, N-terminal, kept) MANSESSSSPVNEEENSQRISTLHHQTMPSDLTQDEFTQLSQSIAEFHTYQLGNGRCSSLLAQRIHAPPETVWSVVRRFDRPQIYKHFIKSCNVSEDFEMRVGCTRDVNVISGLPANTSRERLDLLDDDRRVTGFSITGGEHRLRNYKSVTTVHRFEKEEEEERIWTVVLESYVVDVPEGNSEEDTRLFADTVIRLNLQKLASITEAMNRNNNNNNSSQVR | binds |
| GST-PYR1 (receptor, Arabidopsis, UniProt O49686 1-191, looked up, PYR1, ABA receptor, Arabidopsis; source: recombinant protein, purified; not shown: GST, N-terminal, kept) MPSELTPEERSELKNSIAEFHTYQLDPGSCSSLHAQRIHAPPELVWSIVRRFDKPQTYKHFIKSCSVEQNFEMRVGCTRDVIVISGLPANTSTERLDILDDERRVTGFSIIGGEHRLTNYKSVTTVHRFEKENRIWTVVLESYVVDMPEGNSEDDTRMFADTVVKLNLQKLATVAEAMARNSGDGSGSQVT | binds |
| GST-PYL6 (receptor, Arabidopsis, UniProt Q8S8E3 1-215, looked up, PYL6, ABA receptor, Arabidopsis; source: recombinant protein, purified; not shown: GST, N-terminal, kept) MPTSIQFQRSSTAAEAANATVRNYPHHHQKQVQKVSLTRGMADVPEHVELSHTHVVGPSQCFSVVVQDVEAPVSTVWSILSRFEHPQAYKHFVKSCHVVIGDGREVGSVREVRVVSGLPAAFSLERLEIMDDDRHVISFSVVGGDHRLMNYKSVTTVHESEEDSDGKKRTRVVESYVVDVPAGNDKEETCSFADTIVRCNLQSLAKLAENTSKFS | binds |
| GST-PYL5 (receptor, Arabidopsis, UniProt Q9FLB1 1-203, looked up, PYL5, ABA receptor, Arabidopsis; source: recombinant protein, purified; not shown: GST, N-terminal, kept) MRSPVQLQHGSDATNGFHTLQPHDQTDGPIKRVCLTRGMHVPEHVAMHHTHDVGPDQCCSSVVQMIHAPPESVWALVRRFDNPKVYKNFIRQCRIVQGDGLHVGDLREVMVVSGLPAVSSTERLEILDEERHVISFSVVGGDHRLKNYRSVTTLHASDDEGTVVVESYIVDVPPGNTEEETLSFVDTIVRCNLQSLARSTNRQ | binds |

Results, then the binder that gave them:

| binding result | Binder |
| --- | --- |
| binds | GST-PYL3 (receptor, Arabidopsis, UniProt Q9SSM7 1-209, looked up, PYL3, ABA receptor, Arabidopsis; source: recombinant protein, purified; not shown: GST, N-terminal, kept) MNLAPIHDPSSSSTTTTSSSTPYGLTKDEFSTLDSIIRTHHTFPRSPNTCTSLIAHRVDAPAHAIWRFVRDFANPNKYKHFIKSCTIRVNGNGIKEIKVGTIREVSVVSGLPASTSVEILEVLDEEKRILSFRVLGGEHRLNNYRSVTSVNEFVVLEKDKKKRVYSVVLESYIVDIPQGNTEEDTRMFVDTVVKSNLQNLAVISTASPT |
| binds | GST-PYL2 (receptor, Arabidopsis, UniProt O80992 1-190, looked up, PYL2, ABA receptor, Arabidopsis; source: recombinant protein, purified; not shown: GST, N-terminal, kept) MSSSPAVKGLTDEEQKTLEPVIKTYHQFEPDPTTCTSLITQRIHAPASVVWPLIRRFDNPERYKHFVKRCRLISGDGDVGSVREVTVISGLPASTSTERLEFVDDDHRVLSFRVVGGEHRLKNYKSVTSVNEFLNQDSGKVYTVVLESYTVDIPEGNTEEDTKMFVDTVVKLNLQKLGVAATSAPMHDDE |
| binds | GST-PYL4 (receptor, Arabidopsis, UniProt O80920 1-207, looked up, PYL4, ABA receptor, Arabidopsis; source: recombinant protein, purified; not shown: GST, N-terminal, kept) MLAVHRPSSAVSDGDSVQIPMMIASFQKRFPSLSRDSTAARFHTHEVGPNQCCSAVIQEISAPISTVWSVVRRFDNPQAYKHFLKSCSVIGGDGDNVGSLRQVHVVSGLPAASSTERLDILDDERHVISFSVVGGDHRLSNYRSVTTLHPSPISGTVVVESYVVDVPPGNTKEETCDFVDVIVRCNLQSLAKIAENTAAESKKKMSL |
